These results are taken from patent EP1068241B1.

Assay [1] has as its target FcγRIIa α subunit ECD-6His-GST fusion protein (UniProt P12318). Briefly: ELISA, E27:chimeric IgE:VEGF immune complex on coated receptor.
The target in assay [2] is FcγRIIIa α subunit ECD-6His-GST fusion protein (UniProt P08637). Described as above.
Assay [3] addresses FcγRIIb α subunit ECD-6His-GST fusion protein (UniProt P31994). The description is as above.
The target of assay [4] is FcγRI α subunit-GST fusion (UniProt P12314). The assay is described as follows: ELISA on coated FcγRI α subunit-GST fusion, IgG at 10 µg/ml.
The target of a further assay is CD20 antigen (UniProt P11836). Briefly: flow cytometry on WIL2-S cells.
Assay [5] deals with human C1q (human) (UniProt P02745). The assay is described as follows: cell-based or functional assay.
For assay [6] the target is unchanged. Briefly: C1q binding ELISA. (In general: ELISA stands for enzyme-linked immunosorbent assay.)

Sequence of FcγRIIIa α subunit ECD-6His-GST fusion protein (P08637 other isoform, or with tags, fused parts or gaps): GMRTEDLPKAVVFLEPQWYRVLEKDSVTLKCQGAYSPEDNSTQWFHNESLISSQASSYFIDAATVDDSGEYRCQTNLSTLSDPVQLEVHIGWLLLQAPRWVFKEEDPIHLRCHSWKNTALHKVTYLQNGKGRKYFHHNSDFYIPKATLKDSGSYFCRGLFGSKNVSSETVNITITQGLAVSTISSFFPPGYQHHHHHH
Sequence of CD20 antigen (P11836 whole entry): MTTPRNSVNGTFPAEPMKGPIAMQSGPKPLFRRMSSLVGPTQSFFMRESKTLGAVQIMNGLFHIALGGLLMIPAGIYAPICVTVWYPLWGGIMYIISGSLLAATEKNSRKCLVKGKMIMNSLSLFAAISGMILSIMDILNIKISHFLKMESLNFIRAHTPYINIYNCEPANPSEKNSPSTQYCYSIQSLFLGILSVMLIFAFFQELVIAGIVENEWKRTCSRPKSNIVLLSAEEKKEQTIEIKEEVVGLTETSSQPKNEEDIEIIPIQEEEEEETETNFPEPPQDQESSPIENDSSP
Sequence of FcγRIIb α subunit ECD-6His-GST fusion protein (P31994 other isoform, or with tags, fused parts or gaps): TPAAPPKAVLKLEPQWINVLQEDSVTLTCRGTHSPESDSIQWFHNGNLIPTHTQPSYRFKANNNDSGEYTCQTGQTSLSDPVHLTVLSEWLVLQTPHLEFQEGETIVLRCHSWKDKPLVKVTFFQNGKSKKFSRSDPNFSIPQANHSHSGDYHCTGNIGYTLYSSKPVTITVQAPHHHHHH
Sequence of human C1q (human) (P02745 23-245 limits assumed, chain 1 of 3): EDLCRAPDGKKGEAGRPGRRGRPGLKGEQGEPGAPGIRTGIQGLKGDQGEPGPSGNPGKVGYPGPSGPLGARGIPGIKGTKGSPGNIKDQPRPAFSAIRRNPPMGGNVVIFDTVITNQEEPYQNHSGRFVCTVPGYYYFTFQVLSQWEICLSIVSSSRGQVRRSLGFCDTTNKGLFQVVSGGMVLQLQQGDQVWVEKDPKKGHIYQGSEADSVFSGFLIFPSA
Sequence of human C1q (human) (P02746 28-253 limits assumed, chain 2 of 3, further chain): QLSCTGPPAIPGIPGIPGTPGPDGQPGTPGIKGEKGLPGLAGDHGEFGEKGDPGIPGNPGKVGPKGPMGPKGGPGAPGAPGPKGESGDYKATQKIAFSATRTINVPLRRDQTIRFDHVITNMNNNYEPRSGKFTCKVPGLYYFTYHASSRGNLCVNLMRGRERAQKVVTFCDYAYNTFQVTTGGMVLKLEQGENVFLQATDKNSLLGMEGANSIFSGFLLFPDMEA
Sequence of human C1q (human) (P02747 29-245 limits assumed, chain 3 of 3, further chain): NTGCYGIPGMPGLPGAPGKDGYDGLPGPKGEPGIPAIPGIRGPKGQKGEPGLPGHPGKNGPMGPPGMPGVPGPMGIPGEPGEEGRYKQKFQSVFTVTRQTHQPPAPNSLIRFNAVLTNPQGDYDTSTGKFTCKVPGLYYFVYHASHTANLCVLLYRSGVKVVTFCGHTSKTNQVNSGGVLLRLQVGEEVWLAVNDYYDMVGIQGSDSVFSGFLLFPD
Sequence of FcγRIIa α subunit ECD-6His-GST fusion protein (P12318 other isoform, or with tags, fused parts or gaps): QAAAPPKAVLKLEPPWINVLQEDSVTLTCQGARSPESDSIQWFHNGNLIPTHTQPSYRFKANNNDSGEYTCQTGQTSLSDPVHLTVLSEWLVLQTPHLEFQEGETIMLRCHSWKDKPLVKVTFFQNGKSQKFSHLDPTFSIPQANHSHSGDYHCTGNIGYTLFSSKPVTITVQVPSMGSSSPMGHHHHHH
Sequence of FcγRI α subunit-GST fusion (P12314 other isoform, or with tags, fused parts or gaps): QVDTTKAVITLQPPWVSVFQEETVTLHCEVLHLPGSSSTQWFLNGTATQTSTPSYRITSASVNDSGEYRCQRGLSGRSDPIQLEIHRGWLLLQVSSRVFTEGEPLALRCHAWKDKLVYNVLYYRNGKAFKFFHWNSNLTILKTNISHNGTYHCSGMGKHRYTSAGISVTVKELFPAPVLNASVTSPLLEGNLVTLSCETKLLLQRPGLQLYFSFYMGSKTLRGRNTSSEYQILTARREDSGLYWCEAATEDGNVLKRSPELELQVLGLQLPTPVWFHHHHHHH

On to E27 anti-IgE antibody mutant E318A, for which the binding as percentage of the wild type in assay [1] turned out to be 113%; in assay [2] it was 104%; in assay [3], 106%; in assay [4], 93%.
In turn, C2B8 mutant K320A (antibody) yielded an EC50 as percentage of the wild type in the assay with CD20 antigen of 102%. This substance also displayed a CDC (percentage of the wild type) in the assay with human C1q (human) [5] of 108%.
E27 anti-IgE antibody mutant K320A: the binding as percentage of the wild type in assay [2] amounted to 72%; in assay [3], 83%; in assay [4], 102%.
Regarding C2B8 mutant P331A (antibody), in the assay with CD20 antigen, the EC50 as percentage of the wild type is 103%. Moreover, in the assay with human C1q (human) [6], the fold lower binding than wild type C2B8 was 60 fold.
Regarding E27 anti-IgE antibody mutant P329A, the binding as percentage of the wild type worked out at 85% in assay [2] and 104% in assay [4].
For C2B8 mutant E318A (antibody), in the assay with CD20 antigen, the EC50 as percentage of the wild type is 89%. The substance further returned a CDC (percentage of the wild type) with human C1q (human) [5] of 108%. The decrease in binding against wild type C2B8 with human C1q (human) [6] worked out at 30%.
As for C2B8 mutant P329A (antibody), in the assay with CD20 antigen, the EC50 as percentage of the wild type was 112%.
As to wild type E27 anti-IgE antibody, the binding as percentage of the wild type in assay [1], in assay [2], in assay [3] and in assay [4] was 100% throughout.
As to E27 anti-IgE antibody mutant P331A, the binding as percentage of the wild type in assay [1] was 86%; in assay [2], 73%; in assay [3], 58%; in assay [4], 74%.
For E27 anti-IgE antibody mutant K322A, the binding as percentage of the wild type in assay [1] came out at 109%; in assay [2], 90%; in assay [3] it was 101%; in assay [4], 90%.
